Consider four substances from US20110318339A1.

The target in test [1] is rHuman CD44/Fc Chimera, CF (Cat# 3660-CD) (human) (UniProt P16070). Description: Multispot ECL; Fab 70 nM.
For test [2], the target named is rHuman ErbB2/Fc Chimera, CF (Cat# 1129-ER) (human) (UniProt P04626). Description: Multispot ECL; Fab 70 nM.
In test [3] the target is rHuman IGF-1 sR, (IGF-1 sR), CF (Cat# 391-GR) (human) (UniProt P08069). Description: Multispot ECL; Fab 70 nM.
The target of test [4] is rHuman Notch-1/Fc Chimera, CF (Cat# 3647-TK) (human) (UniProt P46531). In words: Multispot ECL; Fab 70 nM.
Test [5] addresses rHuman P-Cadherin/Fc Chimera, CF (Cat# 861-PC) (human) (UniProt P22223). Description: Multispot ECL; Fab 70 nM.
The target of test [6] is rHuman CD44/Fc Chimera, CF (Cat# 3660-CD) (human) (UniProt P16070). In words: Multispot ECL; Fab 280 nM.
The target of test [7] is rHuman ErbB2/Fc Chimera, CF (Cat# 1129-ER) (human) (UniProt P04626). Description: Multispot ECL; Fab 280 nM.
Test [8] concerns the target rHuman IGF-1 sR, (IGF-1 sR), CF (Cat# 391-GR) (human) (UniProt P08069). In words: Multispot ECL; Fab 280 nM.
Test [9] concerns the target rHuman Notch-1/Fc Chimera, CF (Cat# 3647-TK) (human) (UniProt P46531). Description: Multispot ECL; Fab 280 nM.
Test [10] deals with rHuman P-Cadherin/Fc Chimera, CF (Cat# 861-PC) (human) (UniProt P22223). In words: Multispot ECL; Fab 280 nM.
Test [11] has as its target rHuman CD44/Fc Chimera, CF (Cat# 3660-CD) (human) (UniProt P16070). Description: Multispot ECL; Fab 17.5 nM.
For test [12], the target named is rHuman ErbB2/Fc Chimera, CF (Cat# 1129-ER) (human) (UniProt P04626). Description: Multispot ECL; Fab 17.5 nM.
The target in test [13] is rHuman IGF-1 sR, (IGF-1 sR), CF (Cat# 391-GR) (human) (UniProt P08069). In words: Multispot ECL; Fab 17.5 nM.
Test [14] deals with rHuman Notch-1/Fc Chimera, CF (Cat# 3647-TK) (human) (UniProt P46531). Description: Multispot ECL; Fab 17.5 nM.
Test [15] has as its target rHuman P-Cadherin/Fc Chimera, CF (Cat# 861-PC) (human) (UniProt P22223). Description: Multispot ECL; Fab 17.5 nM.
In test [16] the target is rHuman CD44/Fc Chimera, CF (Cat# 3660-CD) (human) (UniProt P16070). Description: Multispot ECL; Fab 4.375 nM.
Test [17] addresses rHuman ErbB2/Fc Chimera, CF (Cat# 1129-ER) (human) (UniProt P04626). In words: Multispot ECL; Fab 4.375 nM.
Test [18] has as its target rHuman IGF-1 sR, (IGF-1 sR), CF (Cat# 391-GR) (human) (UniProt P08069). In words: Multispot ECL; Fab 4.375 nM.
Test [19] concerns the target rHuman Notch-1/Fc Chimera, CF (Cat# 3647-TK) (human) (UniProt P46531). Description: Multispot ECL; Fab 4.375 nM.
Test [20] concerns the target rHuman P-Cadherin/Fc Chimera, CF (Cat# 861-PC) (human) (UniProt P22223). In words: Multispot ECL; Fab 4.375 nM.
Test [21] addresses rHuman ErbB2/Fc Chimera, CF (Cat# 1129-ER) (human) (UniProt P04626). In words: Multispot ECL; Fab […].
For test [22], the target named is rHuman HGF R/c-MET/Fc Chimera, CF (Cat# 358-MT/CF) (human) (UniProt P08581). In words: Multispot ECL; Fab […].
In test [23] the target is rHuman IGF-1 sR, (IGF-1 sR), CF (Cat# 391-GR) (human) (UniProt P08069). Description: Multispot ECL; Fab […].
Test [24] deals with rHuman ErbB2/Fc Chimera, CF (Cat# 1129-ER) (human) (UniProt P04626). Description: Multispot ECL; Fab 0.096 µM.
The target of test [25] is rHuman HGF R/c-MET/Fc Chimera, CF (Cat# 358-MT/CF) (human) (UniProt P08581). In words: Multispot ECL; Fab 0.096 µM.
In test [26] the target is rHuman IGF-1 sR, (IGF-1 sR), CF (Cat# 391-GR) (human) (UniProt P08069). Description: Multispot ECL; Fab 0.096 µM.
Test [27] has as its target rHuman ErbB2/Fc Chimera, CF (Cat# 1129-ER) (human) (UniProt P04626). Description: Multispot ECL; Fab 0.0192 µM.
Test [28] concerns the target rHuman HGF R/c-MET/Fc Chimera, CF (Cat# 358-MT/CF) (human) (UniProt P08581). Description: Multispot ECL; Fab 0.0192 µM.
Test [29] concerns the target rHuman IGF-1 sR, (IGF-1 sR), CF (Cat# 391-GR) (human) (UniProt P08069). In words: Multispot ECL; Fab 0.0192 µM.
The target in test [30] is rHuman ErbB2/Fc Chimera, CF (Cat# 1129-ER) (human) (UniProt P04626). Description: Multispot ECL; Fab 1.19 µM.
Test [31] concerns the target rHuman HGF R/c-MET/Fc Chimera, CF (Cat# 358-MT/CF) (human) (UniProt P08581). Description: Multispot ECL; Fab 1.19 µM.
The target in test [32] is rHuman IGF-1 sR, (IGF-1 sR), CF (Cat# 391-GR) (human) (UniProt P08069). Description: Multispot ECL; Fab 1.19 µM.
Test [33] concerns the target rHuman ErbB2/Fc Chimera, CF (Cat# 1129-ER) (human) (UniProt P04626). In words: Multispot ECL; Fab 0.2975 µM.
Test [34] has as its target rHuman HGF R/c-MET/Fc Chimera, CF (Cat# 358-MT/CF) (human) (UniProt P08581). In words: Multispot ECL; Fab 0.2975 µM.
Test [35] deals with rHuman IGF-1 sR, (IGF-1 sR), CF (Cat# 391-GR) (human) (UniProt P08069). In words: Multispot ECL; Fab 0.2975 µM.
The target in test [36] is rHuman ErbB2/Fc Chimera, CF (Cat# 1129-ER) (human) (UniProt P04626). Description: Multispot ECL; Fab 0.01859 µM.
Test [37] deals with rHuman HGF R/c-MET/Fc Chimera, CF (Cat# 358-MT/CF) (human) (UniProt P08581). Description: Multispot ECL; Fab 0.01859 µM.
Test [38] addresses rHuman IGF-1 sR, (IGF-1 sR), CF (Cat# 391-GR) (human) (UniProt P08069). In words: Multispot ECL; Fab 0.01859 µM.
In test [39] the target is rHuman ErbB2/Fc Chimera, CF (Cat# 1129-ER) (human) (UniProt P04626). Description: Multispot ECL; Fab 0.07438 µM.
Test [40] addresses rHuman HGF R/c-MET/Fc Chimera, CF (Cat# 358-MT/CF) (human) (UniProt P08581). Description: Multispot ECL; Fab 0.07438 µM.
The target in test [41] is rHuman IGF-1 sR, (IGF-1 sR), CF (Cat# 391-GR) (human) (UniProt P08069). In words: Multispot ECL; Fab 0.07438 µM.
In test [42] the target is rHuman EGF R/Fc Chimera, CF (Cat# 344-ER) (human) (UniProt P00533). Description: Multispot ECL; Fab […].
For test [43], the target named is rHuman Erythropoietin R/Fc Chimera, CF (Cat# 963-ER) (human) (UniProt P19235). Description: Multispot ECL; Fab […].
Test [44] addresses rHuman Notch-1/Fc Chimera, CF (Cat# 3647-TK) (human) (UniProt P46531). In words: Multispot ECL; Fab […].
Test [45] has as its target rHuman P-Cadherin/Fc Chimera, CF (Cat# 861-PC) (human) (UniProt P22223). In words: Multispot ECL; Fab […].
Test [46] addresses rHuman EGF R/Fc Chimera, CF (Cat# 344-ER) (human) (UniProt P00533). In words: Multispot ECL; Fab 0.51 µM.
Test [47] deals with rHuman Erythropoietin R/Fc Chimera, CF (Cat# 963-ER) (human) (UniProt P19235). Description: Multispot ECL; Fab 0.51 µM.
Test [48] concerns the target rHuman IGF-1 sR, (IGF-1 sR), CF (Cat# 391-GR) (human) (UniProt P08069). In words: Multispot ECL; Fab 0.51 µM.
The target in test [49] is rHuman Notch-1/Fc Chimera, CF (Cat# 3647-TK) (human) (UniProt P46531). In words: Multispot ECL; Fab 0.51 µM.
Test [50] deals with rHuman P-Cadherin/Fc Chimera, CF (Cat# 861-PC) (human) (UniProt P22223). Description: Multispot ECL; Fab 0.51 µM.
Test [51] concerns the target rHuman EGF R/Fc Chimera, CF (Cat# 344-ER) (human) (UniProt P00533). In words: Multispot ECL; Fab 0.1275 µM.
The target in test [52] is rHuman Erythropoietin R/Fc Chimera, CF (Cat# 963-ER) (human) (UniProt P19235). Description: Multispot ECL; Fab 0.1275 µM.
In test [53] the target is rHuman IGF-1 sR, (IGF-1 sR), CF (Cat# 391-GR) (human) (UniProt P08069). Description: Multispot ECL; Fab 0.1275 µM.
Test [54] addresses rHuman Notch-1/Fc Chimera, CF (Cat# 3647-TK) (human) (UniProt P46531). Description: Multispot ECL; Fab 0.1275 µM.
The target in test [55] is rHuman P-Cadherin/Fc Chimera, CF (Cat# 861-PC) (human) (UniProt P22223). In words: Multispot ECL; Fab 0.1275 µM.
The target in test [56] is rHuman EGF R/Fc Chimera, CF (Cat# 344-ER) (human) (UniProt P00533). In words: Multispot ECL; Fab 0.03188 µM.
The target of test [57] is rHuman Erythropoietin R/Fc Chimera, CF (Cat# 963-ER) (human) (UniProt P19235). In words: Multispot ECL; Fab 0.03188 µM.
In test [58] the target is rHuman IGF-1 sR, (IGF-1 sR), CF (Cat# 391-GR) (human) (UniProt P08069). Description: Multispot ECL; Fab 0.03188 µM.
Test [59] deals with rHuman Notch-1/Fc Chimera, CF (Cat# 3647-TK) (human) (UniProt P46531). Description: Multispot ECL; Fab 0.03188 µM.
For test [60], the target named is rHuman P-Cadherin/Fc Chimera, CF (Cat# 861-PC) (human) (UniProt P22223). In words: Multispot ECL; Fab 0.03188 µM.

Chain of rHuman Erythropoietin R/Fc Chimera, CF (Cat# 963-ER) (human) (P19235 25-250, change not shown): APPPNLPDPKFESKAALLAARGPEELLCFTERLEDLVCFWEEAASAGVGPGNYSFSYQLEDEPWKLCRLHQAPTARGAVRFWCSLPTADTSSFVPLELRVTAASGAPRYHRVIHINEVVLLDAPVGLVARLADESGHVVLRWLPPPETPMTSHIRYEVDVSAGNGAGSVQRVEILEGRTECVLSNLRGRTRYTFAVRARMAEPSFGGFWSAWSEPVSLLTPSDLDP

For the substance “Fab VH1-46_IGHD2-15*01_IGHJ2*01 & L12_IGKJ1*01”, the ECL signal was 1370 in test [1]; 1360 in test [2]; 1320 in test [3]; 1490 in test [4]; 1820 in test [5]; 4070 in test [6]. Besides, the ECL signal in test [7] was 3950; in [8], 3530; in test [9], 4380; in [10], 5400; in test [11] it was 664; in [12] it was 541. In addition, the ECL signal in test [13] turned out to be 626; in [14], 680; in test [15] it was 949; in test [16], 424; in test [17], 384; in [18] it was 369. The ECL signal in test [19] amounted to 480; in test [20], 469.

Turning to “Fab VH1-46_IGHD6-13*01_IGHJ4*01 & A27_IGKJ1*01”, the ECL signal in test [21] is 11300; in test [22], 8000; in test [23] it was 8930; in [24], 3360; in [25] it was 2330; in [26], 2450. The ECL signal in test [27] is 2310; in test [28] it was 1580; in test [29] it was 1830.

For the substance “Fab VH1-46_IGHD6-13*01_IGHJ4*01 & L2_IGKJ1*01”, the ECL signal turned out to be 38400 in [30]; 45500 in [31]; 35200 in test [32]; 15100 in [33]; 17400 in test [34]; 17400 in [35]. Moreover, the ECL signal in test [36] stood at 5530; in [37], 4570; in [38], 3780; in [39], 7550; in test [40], 6610; in [41], 5800.

As for “Fab VH4-34_IGHD7-27*01_IGHJ4*01 & L5_IGKJ1*01”, the ECL signal in test [42] stood at 530; in [43] it was 566; in test [23], 564; in test [44], 654; in [45], 502; in [46] it was 2360. Besides, the ECL signal was determined as 2620 in [47]; 2240 in test [48]; 2770 in [49]; 2390 in test [50]; 1060 in test [51]; 1070 in test [52]. The ECL signal in test [53] was 1040; in test [54], 1500; in [55], 957; in [56], 694; in [57], 789; in test [58], 765. Further, the ECL signal in test [59] amounted to 849; in test [60], 775.
